Drawing on PMC5591645, this text covers fold higher affinity than the isolated PP1^D95A and Kd for three substances.

The target in the test is phosphorylated human eIF2α (amino acids 1–185) solubility-enhanced mutant (P-eIF2α) (human) (UniProt P05198). As to the kind of experiment: MST.

As for “R15A–PP1^D95A (from UniProt O75807;P62136) (complex)”, the fold higher affinity than the isolated PP1^D95A is 5.4 fold.

As to “R15B–PP1^D95A (from UniProt Q5SWA1;P62136) (complex)”, the fold higher affinity than the isolated PP1^D95A was determined as 3 fold.

Regarding “PP1^D95A (human PP1α amino acids 7–330, D95A) (from UniProt P62136 7-330) (enzyme)”, the Kd was determined as 650 nM.
